The text below walks through data of the supplement of paper PMC10567573.

B1: ZNF649 (parent)
chain: YQAGKPDALTKLEQGEPLWTLEDE
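Note: lentivirally expressed fusions sorted by FACS into six bins by GFP to DsRed ratio, PSI derived from sequencing read proportions per bin multiplied by bin number.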

This series covers variants of B1. Description: protein stability index of a GFP-peptide fusion (GPS, HEK-293T) (PSI 1-6); higher = more stable. The following applies: c terminus: a fixed tail appended.
In the case of YQAGKPDALTKLDQGEPLWTLEDE [E13D], the protein stability index turned out to be 4.18.

Regarding YQAGKPDALTKLRQGEPLWTLEDE [E13R], the protein stability index is 3.26. As to YQAGKPDALTKLGQGEPLWTLEDE [E13G], the protein stability index is 3.31. Consider YQAGKPDALTKLAQGEPLWTLEDE [E13A], for which the protein stability index is 4.2. YQAGKPDALTKLKQGEPLWTLEDE [E13K]: the protein stability index was found to be 3.34.

On to YQAGKPDALTKLSQGEPLWTLEDE [E13S], for which the protein stability index is 4. YQAGKPDALTKLLQGEPLWTLEDE [E13L]: the protein stability index came out at 3.14. For the variant YQAGKPDALTKLQQGEPLWTLEDE [E13Q], the protein stability index is 2.87.

On to YQAGKPDALTKLNQGEPLWTLEDE [E13N], for which the protein stability index is 4.16.

Turning to YQAGKPDALTKLVQGEPLWTLEDE [E13V], the protein stability index came to 4.21. As for YQAGKPDALTKLWQGEPLWTLEDE [E13W], the protein stability index was 1.98.

As for YQAGKPDALTKLYQGEPLWTLEDE [E13Y], the protein stability index is 3.12. For the variant YQAGKPDALTKLMQGEPLWTLEDE [E13M], the protein stability index came out at 3.45. Regarding YQAGKPDALTKLHQGEPLWTLEDE [E13H], the protein stability index turned out to be 4.25. As for YQAGKPDALTKLCQGEPLWTLEDE [E13C], the figure is 3.2; as for YQAGKPDALTKLTQGEPLWTLEDE [E13T], 3.86; as for YQAGKPDALTKLFQGEPLWTLEDE [E13F], 2.6. As to YQAGKPDALTKLPQGEPLWTLEDE [E13P], the protein stability index stood at 4.18. Take YQAGKPDALTKLIQGEPLWTLEDE [E13I]: the protein stability index was 3.15.

Consider YQAGKPDATTKLEQGEPLWTLEDE [L9T], for which the protein stability index stood at 4.71.

On to YQAGKPDAWTKLEQGEPLWTLEDE [L9W], for which the protein stability index was determined as 1.86.

Regarding YQAGKPDAATKLEQGEPLWTLEDE [L9A], the protein stability index came to 4.95.

On to YQAGKPDAGTKLEQGEPLWTLEDE [L9G], for which the protein stability index worked out at 4.55. Take YQAGKPDACTKLEQGEPLWTLEDE [L9C]: the protein stability index was 4.63. To YQAGKPDAMTKLEQGEPLWTLEDE [L9M] belongs 3.61.

For the variant YQAGKPDAQTKLEQGEPLWTLEDE [L9Q], the protein stability index amounted to 4.67. With YQAGKPDAETKLEQGEPLWTLEDE [L9E], the protein stability index stood at 4.93. As for YQAGKPDASTKLEQGEPLWTLEDE [L9S], the figure is 4.9. As for YQAGKPDANTKLEQGEPLWTLEDE [L9N], the protein stability index stood at 3.99.

In the case of YQAGKPDAFTKLEQGEPLWTLEDE [L9F], the protein stability index turned out to be 4.01.

On to YQAGKPDAHTKLEQGEPLWTLEDE [L9H], for which the protein stability index was determined as 4.04. To YQAGKPDAPTKLEQGEPLWTLEDE [L9P] belongs 4.38; to YQAGKPDAVTKLEQGEPLWTLEDE [L9V], 4.62.

YQAGKPDARTKLEQGEPLWTLEDE [L9R]: the protein stability index stood at 4.29. Take YQAGKPDADTKLEQGEPLWTLEDE [L9D]: the protein stability index turned out to be 5.48. On to YQAGKPDAITKLEQGEPLWTLEDE [L9I], for which the protein stability index stood at 4.69. Turning to YQAGKPDAKTKLEQGEPLWTLEDE [L9K], the protein stability index was determined as 4.86. For the variant YQAGKPDAYTKLEQGEPLWTLEDE [L9Y], the protein stability index is 4.54. On to YQAGKPDALTQLEQGEPLWTLEDE [K11Q], for which the protein stability index was 4.76.

For YQAGKPDALTDLEQGEPLWTLEDE [K11D], the protein stability index was 4.86. With YQAGKPDALTRLEQGEPLWTLEDE [K11R], the protein stability index is 4.14.

As for YQAGKPDALTSLEQGEPLWTLEDE [K11S], the protein stability index is 4.19.

As to YQAGKPDALTILEQGEPLWTLEDE [K11I], the protein stability index amounted to 4.54. On to YQAGKPDALTVLEQGEPLWTLEDE [K11V], for which the protein stability index was 4.69. Regarding YQAGKPDALTNLEQGEPLWTLEDE [K11N], the protein stability index worked out at 4.51.

For YQAGKPDALTCLEQGEPLWTLEDE [K11C], the protein stability index turned out to be 4.45. To YQAGKPDALTYLEQGEPLWTLEDE [K11Y] belongs 3.51; to YQAGKPDALTMLEQGEPLWTLEDE [K11M], 4.77. Regarding YQAGKPDALTHLEQGEPLWTLEDE [K11H], the protein stability index came to 4.78. As for YQAGKPDALTLLEQGEPLWTLEDE [K11L], the protein stability index turned out to be 4.23. Regarding YQAGKPDALTELEQGEPLWTLEDE [K11E], the protein stability index is 4.06. To YQAGKPDALTALEQGEPLWTLEDE [K11A] belongs 4.66. As for YQAGKPDALTFLEQGEPLWTLEDE [K11F], the figure is 3.37; as for YQAGKPDALTTLEQGEPLWTLEDE [K11T], 4.09. YQAGKPDALTWLEQGEPLWTLEDE [K11W]: the protein stability index amounted to 2.86.

Regarding YQAGKPDALTGLEQGEPLWTLEDE [K11G], the protein stability index amounted to 4.21. As for YQAGKPDALTPLEQGEPLWTLEDE [K11P], the protein stability index came to 5.28. As for YQAGKPDALEKLEQGEPLWTLEDE [T10E], the protein stability index came out at 4.5. To YQAGKPDALNKLEQGEPLWTLEDE [T10N] belongs 4.41. On to YQAGKPDALAKLEQGEPLWTLEDE [T10A], for which the protein stability index was found to be 4.88. Consider YQAGKPDALMKLEQGEPLWTLEDE [T10M], for which the protein stability index amounted to 4.22. As for YQAGKPDALSKLEQGEPLWTLEDE [T10S], the figure is 4.62. As for YQAGKPDALYKLEQGEPLWTLEDE [T10Y], the protein stability index amounted to 4.58. As for YQAGKPDALQKLEQGEPLWTLEDE [T10Q], the figure is 4.55; as for YQAGKPDALDKLEQGEPLWTLEDE [T10D], 4.91. YQAGKPDALPKLEQGEPLWTLEDE [T10P]: the protein stability index was 4.97. In the case of YQAGKPDALRKLEQGEPLWTLEDE [T10R], the protein stability index was found to be 3.97.

On to YQAGKPDALIKLEQGEPLWTLEDE [T10I], for which the protein stability index was 4.02. As to YQAGKPDALWKLEQGEPLWTLEDE [T10W], the protein stability index was found to be 2.31. Consider YQAGKPDALLKLEQGEPLWTLEDE [T10L], for which the protein stability index is 4.39. With YQAGKPDALVKLEQGEPLWTLEDE [T10V], the protein stability index is 4.62.

With YQAGKPDALKKLEQGEPLWTLEDE [T10K], the protein stability index is 3.15. As for YQAGKPDALGKLEQGEPLWTLEDE [T10G], the protein stability index came to 3.69. Turning to YQAGKPDALCKLEQGEPLWTLEDE [T10C], the protein stability index turned out to be 4.28. For YQAGKPDVLTKLEQGEPLWTLEDE [A8V], the protein stability index is 3.51.

As to YQAGKPDWLTKLEQGEPLWTLEDE [A8W], the protein stability index amounted to 1.18.

On to YQAGKPDALTKLEQCEPLWTLEDE [G15C], for which the protein stability index worked out at 3.9. As to YQAGKPDALTKLEQLEPLWTLEDE [G15L], the protein stability index was found to be 4.25. As for YQAGKPDALTKLEQQEPLWTLEDE [G15Q], the protein stability index amounted to 4.31. Consider YQAGKPDALTKLEQFEPLWTLEDE [G15F], for which the protein stability index is 3.74. For the variant YQAGKPDALTKLEQYEPLWTLEDE [G15Y], the protein stability index came out at 3.52. To YQAGKPDALTKLEQMEPLWTLEDE [G15M] belongs 3.97; to YQAGKPDALTKLEQIEPLWTLEDE [G15I], 4.15. As for YQAGKPDALTKLEQHEPLWTLEDE [G15H], the figure is 4.31.

For YQAGKPDALTKLEQEEPLWTLEDE [G15E], the protein stability index was found to be 4.88.

As for YQAGKPDALTKLEQAEPLWTLEDE [G15A], the protein stability index is 3.84.

With YQAGKPDALTKLEQNEPLWTLEDE [G15N], the protein stability index was found to be 4.11. Consider YQAGKPDALTKLEQTEPLWTLEDE [G15T], for which the protein stability index amounted to 4.15. As for YQAGKPDALTKLEQVEPLWTLEDE [G15V], the figure is 4.62; as for YQAGKPDALTKLEQPEPLWTLEDE [G15P], 3.89. With YQAGKPDALTKLEQREPLWTLEDE [G15R], the protein stability index stood at 2.82.

For YQAGKPDALTKLEQDEPLWTLEDE [G15D], the protein stability index was 4.6. Consider YQAGKPDALTKLEQWEPLWTLEDE [G15W], for which the protein stability index is 3.39. With YQAGKPDALTKLEQSEPLWTLEDE [G15S], the protein stability index was 4.21.
